The target of test [1] is T1, Human PTK7 Protein, His Tag (Acro Biosystems) (human, UniProt Q13308 31-704).
T1 construct: Bought His-tagged recombinant human PTK7; also called CCK4; Tyrosine-protein kinase-like 7
T1 sequence: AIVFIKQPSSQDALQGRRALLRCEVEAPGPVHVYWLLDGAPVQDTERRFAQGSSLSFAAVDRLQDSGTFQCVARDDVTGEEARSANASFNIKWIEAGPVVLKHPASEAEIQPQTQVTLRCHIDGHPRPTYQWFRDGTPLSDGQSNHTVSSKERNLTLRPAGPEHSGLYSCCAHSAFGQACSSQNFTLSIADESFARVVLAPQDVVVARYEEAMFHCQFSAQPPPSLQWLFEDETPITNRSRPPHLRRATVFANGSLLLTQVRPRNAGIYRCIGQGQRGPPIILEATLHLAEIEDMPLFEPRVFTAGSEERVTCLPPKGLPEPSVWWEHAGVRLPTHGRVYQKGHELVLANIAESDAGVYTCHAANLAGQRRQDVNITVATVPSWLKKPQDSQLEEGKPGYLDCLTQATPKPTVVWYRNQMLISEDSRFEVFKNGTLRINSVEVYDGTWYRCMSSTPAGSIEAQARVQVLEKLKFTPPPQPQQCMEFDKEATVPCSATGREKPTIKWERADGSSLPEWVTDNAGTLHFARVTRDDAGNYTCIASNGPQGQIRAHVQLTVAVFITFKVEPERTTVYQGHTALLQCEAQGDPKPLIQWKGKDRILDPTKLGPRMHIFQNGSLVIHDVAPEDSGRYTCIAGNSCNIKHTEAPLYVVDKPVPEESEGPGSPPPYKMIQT
The test can be described thus: BLI (Octet), antibody on anti-human Fc sensor, 50 nM PTK7; 2 = substantially similar binding.

Test [2] concerns the target T2, Human PTK7 Protein, His Tag, Acro Biosystems (human, UniProt Q13308 31-704).
T2 construct: Bought protein; also called CCK4; not shown: His tag
T2 sequence: T1 sequence
The test can be described thus: BLI (Octet), antibody on anti-human Fc sensor, 50 nM PTK7, dissociation at pH 7.4 or 5.4; 1 = pH dependent binding relative to parent. For orientation: Biolayer interferometry detects binding as a change in optical thickness at a sensor tip.

Test [3] addresses T3, Human PTK7 Protein, His Tag, Acro Biosystems (human, UniProt Q13308 31-704).
T3 construct: Bought recombinant protein; also called CCK4; not shown: His tag
T3 sequence: T1 sequence
The test can be described thus: BLI (Octet), antibody on anti-human Fc sensor, 50 nM PTK7 at pH 7.4, dissociation at pH 7.4 or 5.4; 1 = pH dependent binding relative to parent.

34 molecules from US20260209386A1 (MYTHIC THERAPEUTICS, published 2026) can be followed below.

Changes are numbered by the printed parent chain.

B1: MYT10988 (antibody, V domains shown)
VH: EVQLVESGGGLVQPGGSLRLSCTASGFSLSSYAMGWVRQAPGKGLEWVGFINAGGNTYYANWAKGRFTISRDTSKNTVYLQMNSLRAEDTAVYFCARRYSRASGWYHLWGQGTLVTVSS
VL: EIVMTQSPSTLSASVGDRVIITCQASQSISSYLAWYQQKPGKAPKLLIYAASTLASGVPSRFSGSGSGAEFTLTISSLQPDDFATYYCQSYSYSSGIDYGDVFGQGTKLTVL
notes: MYT9359 HC variant; captured on anti-human Fc sensor
In the case of B1, the binding result in test [1] is listed as “binds”.

B2: MYT10953 (antibody, V domains shown)
VH: B1 VH with S28H, H107D
VL: B1 VL
notes: as for B1
As to B2, the binding result in test [1] was “binds”.

B3: MYT10954 (antibody, V domains shown)
VH: B1 VH with L29H, H107D
VL: B1 VL
notes: as for B1
As to B3, the binding result in test [1] was “binds”.

B4: MYT11182 (antibody, V domains shown)
VH: EVQLVESGGGLVQPGGSLRLSCTASGIHLSSYVMGWVRQAPGKGLEWVGYIYGGGGTYYATWARGRFTISRDTSKNTVYLQMNSLRAEDTAVYFCARAAADFYFNLWGQGTLVTVSS
VL: EIVMTQSPSTLSASVGDRVIITCQASQSISSYLAWYQQKPGKAPKLLIYDISDLASGVPSRFSGSGSGAEFTLTISSLQPDDFATYYCQSYYWISNSGAAFGQGTKLTVL
notes: HC variant of MYT9460, sub at HCV pos 28 (H1 03)
On to B4, for which the binding result in test [2] is on record as “binds”.

B5: MYT11197 (antibody, V domains shown)
VH: B4 VH with H28D, T57H
VL: B4 VL
notes: HC variant of MYT9460, sub at HCV pos 57 (H2 08)
On to B5, for which the binding result in test [2] is listed as “binds”.

B6: MYT11249 (antibody, V domains shown)
VH: B4 VH with H28D
VL: B4 VL with A100H
notes: LC variant of MYT9460, sub at LCV pos 100 (L3 12)
Take B6: the binding result in test [2] was “binds”.

B7: MYT11238 (antibody, V domains shown)
VH: B4 VH with H28D
VL: B4 VL with Q89H
notes: LC variant of MYT9460, sub at LCV pos 89 (L3 01)
In the case of B7, in test [2], the binding result is listed as “binds”.

B8: MYT11246 (antibody, V domains shown)
VH: B4 VH with H28D
VL: B4 VL with S97H
notes: LC variant of MYT9460, sub at LCV pos 97 (L3 09)
Regarding B8, the binding result in test [2] is listed as “binds”.

B9: MYT11244 (antibody, V domains shown)
VH: B4 VH with H28D
VL: B4 VL with S95H
notes: LC variant of MYT9460, sub at LCV pos 95 (L3 07)
As for B9, the binding result in test [2] is reported as “binds”.

B10: MYT11224 (antibody, V domains shown)
VH: B4 VH with H28D
VL: B4 VL with S28H
notes: LC variant of MYT9460, sub at LCV pos 28 (L1 05)
With B10, the binding result in test [2] is recorded as “binds”.

B11: MYT11225 (antibody, V domains shown)
VH: B4 VH with H28D
VL: B4 VL with I29H
notes: LC variant of MYT9460, sub at LCV pos 29 (L1 06)
Take B11: in test [2], the binding result was “binds”.

B12: MYT11253 (antibody, V domains shown)
VH: B4 VH with H28D
VL: B4 VL with N96A
notes: LC variant of MYT9460, Ala sub at LCV pos 96 (L3 08)
B12: the binding result in test [2] is on record as “binds”.

B13: MYT11247 (antibody, V domains shown)
VH: B4 VH with H28D
VL: B4 VL with G98H
notes: LC variant of MYT9460, sub at LCV pos 98 (L3 10)
In the case of B13, the binding result in test [2] was “binds”.

B14: MYT11184 (antibody, V domains shown)
VH: B4 VH with H28D, S30H
VL: B4 VL
notes: HC variant of MYT9460, sub at HCV pos 30 (H1 05)
As to B14, in test [2], the binding result was “binds”.

B15: MYT11194 (antibody, V domains shown)
VH: B4 VH with H28D, G54H
VL: B4 VL
notes: HC variant of MYT9460, sub at HCV pos 54 (H2 05)
As for B15, in test [2], the binding result is “binds”.

B16: MYT11180 (antibody, V domains shown)
VH: B4 VH with G26H, H28D
VL: B4 VL
notes: HC variant of MYT9460, sub at HCV pos 26 (H1 01)
Regarding B16, the binding result in test [2] is “binds”.

B17: MYT11192 (antibody, V domains shown)
VH: B4 VH with H28D, Y52H
VL: B4 VL
notes: HC variant of MYT9460, sub at HCV pos 52 (H2 03)
For B17, the binding result in test [2] was “binds”.

B18: MYT11240 (antibody, V domains shown)
VH: B4 VH with H28D
VL: B4 VL with Y91H
notes: LC variant of MYT9460, sub at LCV pos 91 (L3 03)
For the molecule B18, the binding result in test [2] was “binds”.

B19: MYT11222 (antibody, V domains shown)
VH: B4 VH with H28D
VL: B4 VL with S26H
notes: LC variant of MYT9460, sub at LCV pos 26 (L1 03)
As to B19, the binding result in test [2] is “binds”.

B20: MYT11193 (antibody, V domains shown)
VH: B4 VH with H28D, G53H
VL: B4 VL
notes: HC variant of MYT9460, sub at HCV pos 53 (H2 04)
Turning to B20, in test [2], the binding result was “binds”.

B21: MYT11213 (antibody, V domains shown)
VH: B4 VH with H28D, Y103H
VL: B4 VL
notes: HC variant of MYT9460, sub at HCV pos 103 (H3 08)
Take B21: the binding result in test [2] is listed as “binds”.

B22: MYT11195 (antibody, V domains shown)
VH: B4 VH with H28D, G55H
VL: B4 VL
notes: HC variant of MYT9460, sub at HCV pos 55 (H2 06)
As for B22, the binding result in test [2] is recorded as “binds”.

B23: MYT11221 (antibody, V domains shown)
VH: B4 VH with H28D
VL: B4 VL with A25H
notes: LC variant of MYT9460, sub at LCV pos 25 (L1 02)
In the case of B23, the binding result in test [2] is listed as “binds”.

B24: MYT11196 (antibody, V domains shown)
VH: B4 VH with H28D, G56H
VL: B4 VL
notes: HC variant of MYT9460, sub at HCV pos 56 (H2 07)
As for B24, the binding result in test [2] is recorded as “binds”.

B25: MYT11229 (antibody, V domains shown)
VH: B4 VH with H28D
VL: B4 VL with L33H
notes: LC variant of MYT9460, sub at LCV pos 33 (L1 10)
B25: in test [2], the binding result is “binds”.

B26: MYT11245 (antibody, V domains shown)
VH: B4 VH with H28D
VL: B4 VL with N96H
notes: LC variant of MYT9460, sub at LCV pos 96 (L3 08)
In the case of B26, in test [2], the binding result is “binds”.

B27: MYT11236 (antibody, V domains shown)
VH: B4 VH with H28D
VL: B4 VL with A55H
notes: LC variant of MYT9460, sub at LCV pos 55 (L2 06)
As to B27, the binding result in test [2] is “binds”.

B28: MYT11248 (antibody, V domains shown)
VH: B4 VH with H28D
VL: B4 VL with A99H
notes: LC variant of MYT9460, sub at LCV pos 99 (L3 11)
In the case of B28, the binding result in test [2] is “binds”.

B29: MYT11210 (antibody, V domains shown)
VH: B4 VH with H28D, A100H
VL: B4 VL
notes: HC variant of MYT9460, sub at HCV pos 100 (H3 05)
With B29, the binding result in test [2] was “binds”.

B30: MYT10943 (antibody, V domains shown)
VH: EVQLVESGGGLVQPGGSLRLSCTASGFSLSNYVMNWVRQAPGKGLEWVGIIDSSGSTYYASWAKGRFTISRDTSKNTVYLQMNSLRAEDTAVYFCARGLYLWGQGTLVTVSS
VL: EIVMTQSPSTLSASVGDRVIITCQSSQSVYNNNLLAWYQQKPGKAPKLLIYYTSNLASGVPSRFSGSGSGAEFTLTISSLQPDDFATYYCQGGYHGNIYAFGQGTKLTVL
notes: MYT9345 variant, substitution at VL pos 95 (L3 05), no Ala mark
Regarding B30, in test [3], the binding result is on record as “binds”.

B31: MYT10944 (antibody, V domains shown)
VH: B30 VH
VL: B30 VL with H95N, G96H
notes: MYT9345 variant, His at VL pos 96 (L3 06)
Take B31: the binding result in test [3] is on record as “binds”.

B32: MYT10949 (antibody, V domains shown)
VH: B30 VH
VL: B30 VL with H95N, T108E, V109I, L110K
notes: MYT9345 LC variant; substitution position printed as n/a
For the molecule B32, in test [3], the binding result is on record as “binds”.

B33: MYT10950 (antibody, V domains shown)
VH: B30 VH
VL: B30 VL with H95A
notes: MYT9345 variant, Ala at VL pos 95 (L3 05)
With B33, the binding result in test [3] was “binds”.

B34: MYT10946 (antibody, V domains shown)
VH: B30 VH
VL: B30 VL with H95N, I98H
notes: MYT9345 variant, His at VL pos 98 (L3 08)
With B34, the binding result in test [3] was “binds”.
